Measured values: the supplement of paper PMC9170038

system: MS2 coat protein; assay: apparent KD of MS2 coat protein; higher = weaker reporter binding; settings: Eterna round: R107; input ligand: none
Method in brief: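 Apparent KD per design is the median of normalised cluster binding-curve fits. Designed RNA switches transcribed on-chip from Illumina sequencing clusters were titrated with SNAP-549-labelled MS2 coat protein in twofold steps from 0.7 or 1.5 nM to 3 µM, with 0.8–1.5 h down to 10–20 min per step. Buffer: 100 mM Tris-HCl pH 7.5, 80 mM KCl, 4 mM MgCl2, without or with constant ligand.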

“GGACAUGCAGGAAGGAGCGACACAGCAGAAACUGCAAAUCCUCCACACGAGGAUCACCCGUGUCAGGUAGGUCGCCUGCAUGUCG [ArgXB 14 #Zipper #MS2Left #StaticStem #Blueprint]” and “GGAUAGGACACGGCCGCCACUACCUAGGAUACUAGCAACAUUUGGGUGCACGAGGAUCACCCGUGUAGGACCGGGUGUCCUAUCG” are within 1.5-fold of each other in “apparent KD of MS2 coat protein” value: 89.5 nM for the first, 72.5 nM for the second.

“GACCGAUUAUAGUGCGAUUCUCUUGUGGAAGGAGCGCAGAGGACUGCAGGUAGGUCGCCACAUGAGGAUCACCCAUGUCAGGAUA [Esxebiat]” and “CAGGUGGACUGAAGGAGCGAGUCAGGGACUUACAUGAGGAUCACCCAUGUCACGGUCGUCACUCAGGUAGGUCGCAGUUCGCCUC [Diinan]” are within 1.5-fold of each other in “apparent KD of MS2 coat protein” value: 183 nM for the first, 188 nM for the second.

First: GGUUGAAACUGAAGGAGCGAGAUCACAAGAUUGGGUCUAACAUGAGGAUCACCCAUGUAAUCUCAGGUAGGUCGCAGUGACCAAA [Exclusion Arginine B GF 13]
Second: UGGGUAGAAUAGAUAGAUAGAUAAACUGAAGGAGCGAGAAUAAACUCAGGUAGGUCGCAGACAUGAGGAUCACCCAUGUAGAUGG [Same State Arginine A GF15]
The “apparent KD of MS2 coat protein” value of the first is 2.6-fold lower: 38.4 nM for the first, 98.8 nM for the second.

Compared with “GGACUAACCAGAAGGAGCGACACGCAGAAACUGCAAAUUCCUCCACACGAGGAUCACCCGUGUCAGGUAGGUCGCUGGUUAGUCG”, “ACGUAAUGCAGAAGGAGCGUCUUAUGUAUACAUGAGGAUCACCCAUGUAAUAUGUGGUUGAGACAGGUAGGUCGCUGAAGUACGA [JR_SSArginiB_Sub009]” is 3.6-fold higher in “apparent KD of MS2 coat protein” value: 24 nM for the first, 86 nM for the second.

Compared with “UAUCCACAUGAGGAUCACCCAUGUUAGGAAGGAGCGGUGAAUGAACCAGGUAGGUCGCCUAGCUGAGGACCAUCGAUGGAUUCGU [Exclusion - Arginine A (Freestyle 15)]”, “CGGUAGGUAGGUCGAUAUCUACCCGUAGAAGGAGCGUAAGAAAAUACAGGUAGGUCGCUACGGAACAUGAGCAUCAGCCAUGUCC [SSArg A #12-Alt Ms2]” is 1.8-fold lower in “apparent KD of MS2 coat protein” value: 20.3 nM for the first, 11 nM for the second.

Compared with “AGUCUUAAUGGAAGGAGCGCAGUCAUAACAUGAGGAUCACCCAUGUCGAGGUGAGGGUCAUUGCAGGUAGGUCGCCAUACUAAGA [Same State - Arginine B (Freestyle 3)]”, “GGGCGCUAUCCCGCGAGGGAUAGCGUUCGGCGAGGACCGGUACGGCCGCCACUCGAACGAGUGGGUACAUGAGGAUCACCCAUGU [Faa]” is 7.1-fold lower in “apparent KD of MS2 coat protein” value: 199 nM for the first, 28 nM for the second.

First: AUAUAUAUAUAGAAAUAUAUAUAUAUGUAACGAGGACCGGUACGGCCGCCACUCGUGCCGGUGAUAACAUGAGGAUCACCCAUGU [Ex_TrypA - Every engine approves!]
Second: UGUAUGUGAUUUGAUACCAGACCAGCUGGUGGUACACGAGGAUCACCCGUGUAGGUUUGGGUCCCUUGGCAGCAAAUCGCAUACU [SS Theo B #24 Ms3]
The “apparent KD of MS2 coat protein” value of the first is 3.5-fold lower: 16 nM for the first, 56.8 nM for the second.

“AUUAAUUUAUUUCUCAAUUUAAUUUCAGAAGGAGCGUGAUGUUUCACAGGUAGGUCGCUGUUUACAUGAGGAUCACCCAUGUUUU [JR_SSArginiA_Sub004]” and “UUAAUCAUUGAUGAAAACAUUAAUGCAGAAGGAGCGUGAUAAAACACAGGUAGGUCGCUGAAGGGAACAUGAGGAUCACCCAUGU [AstrosSSArgA#16]” are within 1.5-fold of each other in “apparent KD of MS2 coat protein” value: 40.2 nM for the first, 28.1 nM for the second.

“AAUAAUAAGGCGGCCGCCACUAAACAUGAGGAUCACCCAUGUCUCGAGGGCUUGCGUUGGGAAAGUAGGACCGGGCCAAUAAUAA [Exclusion - Tryptophan B (Freestyle 7)]” and “GCUAUGGCUGGAAGGAGCGUGAAUUUCAGCGAACAUGAGGAUCACCCAUGUAAGGAUAUGGCACAGGUAGGUCGCUAGCCAUAGC [#19 Same State - Arginine B]” are within 1.5-fold of each other in “apparent KD of MS2 coat protein” value: 18.7 nM for the first, 14.3 nM for the second.

Going from “GCUGCCAUACGAAGGAGCGCUGCUGCGAUGUGGCGAACAUGAGGAUCACCCAUGUGGCAGCGGCAGGUAGGUCGCGUAUGGCAGC [#02 Exclusion - Arginine B]” to “AAAGUUGAUGAGUUGUGUUUGUGUUCGGAAGGAGCGGGAAUUAUCUCAGGUAGGUCGCCGAACAUGAGGAUCACCCAUGUAUAAA [XArg-A 18 NuV2 original #dotplot2>1]”, the “apparent KD of MS2 coat protein” value falls from 166 nM to 98.7 nM (1.7-fold).

Going from “GACAUGAGGAUCGAUACCAGCGACAUGAGGAUCACAUGAGGAUCACCCAUGUGUAGUAUACGCCCUUGGCAGCGAACAUGAGGAU [Same State Theophylline B 3]” to “UGUAUGUGAUCUGAUACCAGUCCAACUGGUAAAGCGUGAGGAUCACCCAUGCAAAAUUGGGACCCUUGGCAGCAGAUCGCAUACU”, the “apparent KD of MS2 coat protein” value rises from 51.4 nM to 337 nM (6.6-fold).

same assay, conditions: Eterna round: R107; input ligand: theophylline 20 uM

Compared with “AAUAAUCUAGGUGAUACCAGCUCAACAUGAGGAUCACCCAUGUGCUCAUGAAGAGCUGAGAGCCCUUGGCAGCACCUAGAUAAUA [(Theo1)-(Ms2)-(M)'-(T)'-(Theo2)_Design2]”, “AUGCAUAGCACGGCCGCCACUCCAUGUAAACAUGAGGAUCACCCAUGUAAUUUGGAUGUUUUAUAGAGGACCGGGUGAAAUGCAA [JR_ExcTryptoB_Sub004]” is 67-fold lower in “apparent KD of MS2 coat protein” value: 676 nM for the first, 10.1 nM for the second.

Compared with “UAACAUGAGGAUCACCCAUGUAUACUAAGUCGAGGACCGGUACGGCCGCCACUCGAAAUUGAAGAAUUGGCGGUAAAUGUAAGUA [JR_ExcTryptoA_Sub019]”, “GGACAUGCAGGAAGGAGCGACACAGCAGAAACUGCAAAUCCUCCACACGAGGAUCACCCGUGUCAGGUAGGUCGCCUGCAUGUCG [ArgXB 14 #Zipper #MS2Left #StaticStem #Blueprint]” is 6.2-fold higher in “apparent KD of MS2 coat protein” value: 15.9 nM for the first, 99.1 nM for the second.

Compared with “GGAUAGGACACGGCCGCCACUACCUAGGAUACUAGCAACAUUUGGGUGCACGAGGAUCACCCGUGUAGGACCGGGUGUCCUAUCG”, “ACCUACACGGAAACGUGUAGAAGUAAUGAUACCAGCAUGGAAACAUGCCCUUGGCAGCGUUACAUGAGGAUCACCCAUGUAUGUU [#01 Exclusion-TheophyllineA]” is 5.8-fold lower in “apparent KD of MS2 coat protein” value: 115 nM for the first, 19.9 nM for the second.

Compared with “ACGAACGAUAGUGAUACCAGACGUACAUGAGGAUCACCCAUGUUAUACACAUGGUUUAUUGUCCCUUGGCAGCACGAUAAGUUCG [JR_ExcTheophyB_Sub004]”, “GACCGAUUAUAGUGCGAUUCUCUUGUGGAAGGAGCGCAGAGGACUGCAGGUAGGUCGCCACAUGAGGAUCACCCAUGUCAGGAUA [Esxebiat]” is 2.9-fold lower in “apparent KD of MS2 coat protein” value: 263 nM for the first, 89.6 nM for the second.

First: UUUACAUGAGGAUCACCCAUGUGCCAUGAUACCAGACAUGAAAAUGUCCCUUGGCAGCAUGAGUGAUUCAUCCGAAAGGAUGUUU [Jehnice]
Second: CAGGUGGACUGAAGGAGCGAGUCAGGGACUUACAUGAGGAUCACCCAUGUCACGGUCGUCACUCAGGUAGGUCGCAGUUCGCCUC [Diinan]
The “apparent KD of MS2 coat protein” value of the first is 1.9-fold lower: 146 nM for the first, 279 nM for the second.

Compared with “UAACAUGAGGAUCACCCAUGUAUACUUAGUCGAGGACCGGUACGGCCGCCACUCGUACUUCAAGAUUUGGCGGAAAAUGUAUGUA [JR_ExcTryptoA_Sub021]”, “AAUAAGAUCCUCAUGUGAGUCGUACCAUAACGAGGACCGGUACGGCCGCCACUCGAACAUGAGGAUCACCCAUGUAGGUACGACA [M'-T'-T-MS2-T'' - Design 8]” is 21-fold higher in “apparent KD of MS2 coat protein” value: 15.6 nM for the first, 320 nM for the second.

Compared with “GGGAGGGAGGCGGCCGCCACUGAUUUUCAUAUAUAUAUAACAUGAGGAUCACCCAUGUAGAUAUGCAGGACCGGGCCUUUUUUUU [aaaI]”, “ACAGGUACGCCUAUUAAAAUAAAACACCUACGAGGACCGGUACGGCCGCCACUCGGGUGACAUGAGGAUCACCCAUGUGGCUAAA [Ceeron]” is 20-fold higher in “apparent KD of MS2 coat protein” value: 30.1 nM for the first, 610 nM for the second.

Compared with “GGUUGAAACUGAAGGAGCGAGAUCACAAGAUUGGGUCUAACAUGAGGAUCACCCAUGUAAUCUCAGGUAGGUCGCAGUGACCAAA [Exclusion Arginine B GF 13]”, “CCUAUGCAGUCGGCCGCCACUGAAAACAGCCUCAAAAUAAAUAUAACAUGAGGAUCACCCAUGUACAGGACCGGGACUGUAUAGG [Ex Tryptophan B 11]” is 4.4-fold higher in “apparent KD of MS2 coat protein” value: 45.1 nM for the first, 200 nM for the second.

Compared with “UGGGUAGAAUAGAUAGAUAGAUAAACUGAAGGAGCGAGAAUAAACUCAGGUAGGUCGCAGACAUGAGGAUCACCCAUGUAGAUGG [Same State Arginine A GF15]”, “AUAUAUACAUGAGGAUCACCCAUGUUAUUUCGAGGACCGGUACGGCCGCCACUCGAUAGAGUAGAAGUAAAUUUUAAUUCAUGUA [JR_SSTryptoA_Sub008]” is 4.7-fold lower in “apparent KD of MS2 coat protein” value: 87.2 nM for the first, 18.7 nM for the second.

In the case of “GGACUAACCAGAAGGAGCGACACGCAGAAACUGCAAAUUCCUCCACACGAGGAUCACCCGUGUCAGGUAGGUCGCUGGUUAGUCG”, the “apparent KD of MS2 coat protein” value is reported as 31.1 nM.
